Source: PMC7337323 (Nature structural & molecular biology, 2020)
Each block holds one molecule with its values, some of them ahead of it.

T1: full-length CsoS2 (H. neapolitanus) (Halothiobacillus neapolitanus, UniProt O85041 1-869)
T1 sequence (looked up): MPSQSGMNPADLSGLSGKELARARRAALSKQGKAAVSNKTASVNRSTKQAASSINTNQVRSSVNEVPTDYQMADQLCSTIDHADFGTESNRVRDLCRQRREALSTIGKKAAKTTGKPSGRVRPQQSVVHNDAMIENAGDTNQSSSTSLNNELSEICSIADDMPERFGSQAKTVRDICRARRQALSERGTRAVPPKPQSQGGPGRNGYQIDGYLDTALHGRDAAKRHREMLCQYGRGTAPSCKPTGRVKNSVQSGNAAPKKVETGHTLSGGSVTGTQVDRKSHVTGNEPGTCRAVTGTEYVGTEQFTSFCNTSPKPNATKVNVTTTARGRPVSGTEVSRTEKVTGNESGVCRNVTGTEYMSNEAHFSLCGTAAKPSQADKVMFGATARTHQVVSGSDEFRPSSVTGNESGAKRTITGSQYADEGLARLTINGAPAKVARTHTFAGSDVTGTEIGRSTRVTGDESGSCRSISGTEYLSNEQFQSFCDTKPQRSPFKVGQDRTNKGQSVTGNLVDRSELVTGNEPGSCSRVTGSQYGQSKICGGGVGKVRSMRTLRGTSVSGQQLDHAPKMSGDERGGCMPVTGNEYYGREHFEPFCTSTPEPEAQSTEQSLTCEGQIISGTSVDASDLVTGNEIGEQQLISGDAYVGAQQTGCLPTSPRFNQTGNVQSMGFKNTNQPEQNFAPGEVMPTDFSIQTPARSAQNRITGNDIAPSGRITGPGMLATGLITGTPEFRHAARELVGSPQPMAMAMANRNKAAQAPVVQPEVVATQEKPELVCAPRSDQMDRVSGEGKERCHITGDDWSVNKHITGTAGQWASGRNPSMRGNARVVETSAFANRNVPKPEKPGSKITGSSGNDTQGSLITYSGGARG

B1: [N1]-GFP (single CsoS2 N-peptide repeat N1 fused to GFP) (domain or fragment)
chain: PSQSGMNPADLSGLSGKELARARRAALSKQGKAAVSNKTASVNRSTKQAASSINTNQVRSSVNEVPTDYQMADQLCSTIDHADFGTESNRV
modifications: CsoS2 part of Supplementary Table 1 construct; His tag, TEV site, linker, sfGFP and StrepII left out
B2: wild-type H. neapolitanus Rubisco (CbbL8S8) (complex, Halothiobacillus neapolitanus)
chain 1: MAVKKYSAGVKEYRQTYWMPEYTPLDSDILACFKITPQPGVDREEAAAAVAAESSTGTWTTVWTDLLTDMDYYKGRAYRIEDVPGDDAAFYAFIAYPIDLFEEGSVVNVFTSLVGNVFGFKAVRGLRLEDVRFPLAYVKTCGGPPHGIQVERDKMNKYGRPLLGCTIKPKLGLSAKNYGRAVYECLRGGLDFTKDDENINSQPFMRWRDRFLFVQDATETAEAQTGERKGHYLNVTAPTPEEMYKRAEFAKEIGAPIIMHDYITGGFTANTGLAKWCQDNGVLLHIHRAMHAVIDRNPNHGIHFRVLTKILRLSGGDHLHTGTVVGKLEGDRASTLGWIDLLRESFIPEDRSRGIFFDQDWGSMPGVFAVASGGIHVWHMPALVNIFGDDSVLQFGGGTLGHPWGNAAGAAANRVALEACVEARNQGRDIEKEGKEILTAAAQHSPELKIAMETWKEIKFEFDTVDKLDTQNR
chain 2: MAEMQDYKQSLKYETFSYLPPMNAERIRAQIKYAIAQGWSPGIEHVEVKNSMNQYWYMWKLPFFGEQNVDNVLAEIEACRSAYPTHQVKLVAYDNYAQSLGLAFVVYRGN
B3: CbbL (Rubisco large subunit, H. neapolitanus) (natural protein, Halothiobacillus neapolitanus)
chain: B2 chain 1

How the values were obtained:
[1] = target: N*-polyPro (N* consensus peptide on a polyproline II helix); assay: BLI
[2] = target: B2; assay: MST
[3] = target: T1, full-length CsoS2 (H. neapolitanus); assay: native gel or EMSA
crystal structure = target: the molecule itself; assay: crystal structure

- Kd [1]: 0.1 µM
Molecule: wild-type H. neapolitanus Rubisco (CbbL8S8) (from UniProt O85040 1-473; P45686 1-110) (complex)

Molecule: B1
- Kd [2]: > 1000 µM

Molecule: B2
- binding result [3]: binds

Molecule: B3
- binding result (crystal structure): binds
